From the nanobody polyreactivity screen of Harvey et al. (2022)

Assay: yeast display, Sf9 membrane polyspecificity reagent, FACS + sequencing; frameworks hold sequencing errors
Summary of the method: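 Genes from sorted yeast were amplified by colony PCR, read by MiSeq 2 × 250 sequencing and filtered on CDR length. These cells carried a synthetic nanobody library in Saccharomyces cerevisiae BJ5465 and were sorted by FACS into low and high (top ~1%) gates on anti-HA and streptavidin fluorescence. Polyreactivity is labelled according to the gate of origin.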

| Sequence | polyreactivity (PSR sort gate) |
| --- | --- |
| QVQLVESGGGLVQAGGSLRLSCAASGSIFYYNAMGWYRQAPGKERELVAAITSGDSTNYADSVKGRFTISRDNAKNPVYLQMNSLKPEDTAVYYCAADYLAALTYYRTYDYWGQGTQVTVSS | low polyreactivity |
| QVQLVESGGGLVQAGGSLRLSCAASGLTIDYYTMGWYRQAPGKERELVAAINWSGGRTYYADSVKGRFTISRDHAKNTVYLQMNSLKPEDTAVYYCAADTYRRHDDDYWGQGTQVTVSS | high polyreactivity |
| QVQLVESGAGLVQAGGSLRLSCAASGRIFYPYAMGRSRQAPGKERELVAAISGRGGRTYYADSVKGRFTISRDNAKNTVYLQMKSLKPEYTAVYYCNRVVSGYPGSDYWGNGTQVTVSS | high polyreactivity |
| QVQLVESGGGLVQAGGSLRLSCAASGRIYDYYTMGWYRQAPGKERELVAAITWIGGSTYYADSVKGRFTISRDNAKNTVYLQMNSLKPEDTAVYYWNAEGTALPYRADTVGGYYYWGQGTQVTVSS | low polyreactivity |
| QVQLVESGGGLVQAGGSLRLSCAASGITFVRYTMGWYRQAPGKERQFVAGITRGGSTCYADSVKGRFTISRDNAKNTVYLQMNSLKPEDTAVYYCAARPRFLRASVEYDYWGQGTQVTVSS | high polyreactivity |
| QVQLVESGGGLVQAGGSLRLSCAASGSIVGYYFMGWYRQAPGKERELVAAITRSGSTYYADSVKGRFTISRDNEKNTVYLQMNSLKPEDTAVYYCAADGSYYWYTHTTYDYWGQGTQVTVSS | low polyreactivity |
| QVQLVESGGGLVQAGCSLRLSCAASGSIFSQSAMGWYRQAPGKERELVAAISARGTSTYYADSVKGRFTISRDNAKNTVYLQMNSLKPEDTAVYYCNTVRPYSSSSSRYYYWGQGTQVTVSS | high polyreactivity |
| QVQLVESGGGLVQAGGSLRLSCAASGFTFNNNAMGWYRQAPGKERELVAAITSSGGSTRYADSVKGRFTISRDNAKNTVYLQMNSLKPEDTAVYYCNAARQRKYSNWYDYWGQGTQVTVSS | high polyreactivity |
| QVQLVESGGGLVQAGGSLRLSCAASGSTLLTYTMGWYRQAPGKERELVASITTSARSTYYADSVKGRFTISRDNAKNTVYLQMNSLKPEDTAVYYWGQGTQVTVSS | low polyreactivity |
| QVQLVESGGGLVQAGGSLRLSCAASGGIFRYAMGWYRQAPGKEREFVAAITTRGGSTYYADSVKARFTISRDNAKNTVYLQMNSLKPEDTAVYYCAARRYSGRNKYDYWGQGTQLTVSS | high polyreactivity |
| QVQLVESGGGLVQAGVSLRLSCAASGYIFRFNAMGWYRQAPGKERELVAVITSGARTYYADSVKGRFTISRDNAKNTVYLQMNSLKPEDTAVYYCNAGARRYLYDYWGQGTQVTVSS | low polyreactivity |
| QVQLVESGGGLVQAGGSLRLSCAASGSTFSSYAMGWYRPAPGKERELVAAITSSGGSTYYADSVKGRFTISRDNAKNTVYLQMNSLKPEDTAVYYCAAADVIFWLYYYWGQGTQVTVSS | low polyreactivity |
| QVQLVESGGGLVQAGGSLRLSCAASGLNFYSNAMGWYRQAPGKERELVARISTGGSTYADSVKGRFTISRDNAKNTVYLQMNSLKPEDTAVYYCAKLPPRGIDDEYWGQGSQVTVSS | low polyreactivity |
| QVQLVESGGGLVQAGGSLRLSCAASGSTFSRYTMGWYRQAPGKERELVAAISYRGGSTYYADSVKGRFTISRDNAKNTVYLQMNSLKPEDTAVYYCAAEYRVEGSDYDYWGQGSQVTVSS | low polyreactivity |
| QFHLVESGGGLVQAGGSLRLTCAASGRTFAYYAMGWYRQAPGKEREMVAGITRNGGSTYYADSVKGRFTISRDNAKNTVYLQMNSLKPEDTAVYYCAAGFTTRRGEYNYWGKGTQVTVSS | high polyreactivity |
| QVQLVESGGGLVQEGGSIRLSCAASGSTFFLYAMGWYRQAPGKERELVAAITYTDGDTYYADSVKGRFTISRDNAKNTVYLQMNSLKPEDNAVYYCNAGGDEPVYGSGYDYWGQGTQVTVSS | low polyreactivity |
| QVQLVESGGGLVQAGGSLRLSCAASGSTAYVMGWYRQAPGKETELVAAISKSGGSTYYADSVKGRFTISRDNAKNTVYLQMNSLKPEDTAVYYCSALYPTTTAYRYGYWGQGTQVTVSS | high polyreactivity |
| QVQLVESGGGLVQAGGSLRLSCAASGSIIVRYAMGWYRQAPGKERELVAAITSRGGSTYYAVSVKGRFTISRDNAKNTVYLQMNSLKPEDTAVYYCAAYGDQRSTPAIDKYGGQGTQVTVSS | low polyreactivity |
| QVQLVESGGGLVQAGGSLRLSCAASGSIFYLYAMGWYRQAPGKERELVATITASGGSTNYADSVKGRFTISRDNAKNTVYLQMNSLKPEDTAVYYCAAEYYYLVYEYDYWGQGTQVTVSS | high polyreactivity |
| QVQLVESGGGLVQAGGSLRLSCAASGFIFDIYAMGGYRPAPGKERELVAAISSGGSTNYADSVKGRFTISRDNAKNTVYLQMNSLKPEDTAVYYCAADRSDLAEEGYAGYDYWGQGTQVTVSS | low polyreactivity |
| QVQLVESGGGLVQAGGSLRLSCAASGRTLGKYAMGWYRQAPGKERELVAAIRWTGGNTYYADSVKGRFTISRDNAKNTVYLQMNSLKPEDTAVYYCAAAYWNDWSQYDYWGQGTQVTVSS | high polyreactivity |
| QVQLVESGGGLVQAGGSLRLSCAASGFIFDRNTMGWYRQAPGKERELVAAISRSGGSTYYADSVKGRFTISRDNAKNTVYLQMNSLKPEDTAVYYCAALYYYRNRSYDYWGQGTQVTVSS | high polyreactivity |

| Sequence | polyreactivity (PSR sort gate) |
| --- | --- |
| QVQLVESGGGLVQAGCSLRLSCAASGRPFWYNAMGGYRQAPGNVRELVAGISGSGGSTYYADSVKGRFTISRDNAKNTVYLQMNSLKPEDTAVYYCAATTGYSRSYRYGYWGQGTQVTVSS | high polyreactivity |
| QVQLVESGGGLVQAGGSLRLSCAASGIIFRLNAMGWYRQAPGKERELVAAIRRRGGSTYYADSVKGRFTISRDIAKNTVYLQMNSLKPEDTAVYYCAKDPHGSDFGYWGQGTQVTVSS | low polyreactivity |
| QVQLVDSGGGLVQAGGSLRLSCAAYGSTFRGYAMGWYRPAPGKERELVAAISWSGGITYYADSVKGRFTISRDNAKNTVYLQMNRLKPEDTAVYYCAAVWDQVSDRYMLEYCGQGTQVTVSS | high polyreactivity |
| QVQLVESGGGLVHAGGSLRLSCAASGNIFRYNAMGWYRQAPGKERELVAAISSVGTTNYADSVKGRFTISRDNAKNTVYLQMNSLKPEDSAVYYCAAVAFQGGYWYDYWGQGTQVTVSS | low polyreactivity |
| QVQLVESGGGLVQAGGSLRLSCAASGIISVRNTMGWYRQAPGKERELVAAISGSGGSTHYADSVKGRFTISRDNAKNTVYLQMNSLKTEDTEVYYCAVRSYGYWHFGYWGQGTQVTVSS | high polyreactivity |
| QVKLVESGGVLVQAGGSLRLSCAASGRIFGTYAMGWYRQAPGKERELVASISYSDGSTYADSVKGRFTISRDNAKNTVYLQMNSLKPEDTAVYYCAADVYYYAQCEDGYWGQGTQVTVSS | low polyreactivity |
| QVQLVESGGGLVQAGGSLRLSCAASGFTLADNTMGWYRQAPGKERQLVATISSDGNTNYADSVKGRFTISRDNAKNTVYLQMNSLKPEDTAVYYCNAEGVFGDVRSGFYWYDYWGQGTQVTVSS | low polyreactivity |
| QVQLVESGGGLVQAGGSLRLSCAASGLTFDWYTMGWYRQAPGKERELVATINSGGSTDYADSVKRRFTISRDNAKNTVYLQMNSLKPEDTAVYYCAAQPFVIDGGYRGDYWGQGTQVTVSS | low polyreactivity |
| QVQLVESGGGLVQAGGSLRLSCAASGRTNWTYVMGWYRQAPGKERELVAAISRSGSSTYYADSVKGRFTISRDNAKNTVYLQMNSLKPEDTAVYYCNNVDGTTLDDHYMDYWGQGTQVTVSS | low polyreactivity |
| QVQLVESGGGLVQAGGSLRLSCAASGSIFYINAMGWYRQAPGKERELVASISGGGGSTYYADSVKGRFTISRDNAKNTVYLQMNSLKPEDTAVYYCAARYRVYYLAGYEYWGQGTQVTVSS | high polyreactivity |
| QVQLVESGGGLLQAGGSLRLSCAASGSIFGSYVMGWYRQAPGKERELVAAITASGGSTYYADSVKGRFTISRDTAKNTVYLQMNSLKPEDTAVYYCATKRTWPVGEMYYWGQGTQVTVSS | high polyreactivity |
| QVQLVESGGGLDQAGGSLRLSCAASGLTFQWNAMGWYRQAPGKERELVAGITDIGDSTYYADSVKGRFTISRDNAKHTDYLQLNSLKPEDTAVYYCNATSGYKHAWRSENGYWGQGTQVTVSS | low polyreactivity |
| QVQLVESGAGLVQAGGSLRLSCAASGRIFTKYAMGLYRQAPGKERELVAAISGSGGNTYYADSLKGRFTISRDNAKNTVYLQMNSLKPEDTAVYYCNRAKNAYLMDFWGQVTQVTVSS | high polyreactivity |
| QVQLVESGGGLVQAGGSLRLSCAASGSTILYYAMGWYRPAPGKERELVAAITWSGGPTYYADSVKGRFTISRDNAKMSGYLLMTSLKPEDTAVYYCNKADPWLRSTALNPGLYDYWGQGTQVTVSS | high polyreactivity |
| QVQLVESGGGLVQAGGSLRLSCAASGLTLGSYTMGWYRQAPGKERELVAAIRKRGSSSYYADSVKGRFTISRDNAKNTVYLQMISQKPEDTAVYYCATDVASYWYRFFWRYGYWGQGTQVTVSS | low polyreactivity |
| QVQLEESGGALVQAGGSLRLSCAASGFTFYRNALGWNRQAPGQERELVGAITRGGSTTYADSVKGRFTISRDNAKNTVYLQMNRMKPEDTAVYYCAAPKYIWYRDLNYWGQGTQVTVSS | high polyreactivity |
| QVQLVESGGGLVQAGGSLRLSCAASGFTFYRYAMGWYRQAPGKERELVAAITRTGGSTYYADSVKGRFTISRDNAKNTVYLQMNSLKPEDTAVYYCAARVHGTGTLKYPNYYWGQGTQVTVSS | high polyreactivity |
| QVQLVESGGGIVQAGGSLRLSCAASGLTFRKYAMGWYRQAPGKERELVAAIRFRGGSTYYADSVKGRFTISRDNAKNTVYLQMNSLKPEDTAVYYCNTAPVGLLYGRYDYWGEGTQVTVSS | high polyreactivity |
| QVQLVDSGGGLVQAGGSLRLSCAASGAIFEYYAMAWNRQAPGKERELVAAISWSGGSTYYADSVKGRFTISRDNAKNTVYLQMNSLKPEDTAVYYCAADYYLYQVYTGYDYWGQGTQVNVSS | low polyreactivity |
| QVQLVESGGGLVQAGGSLLLSCAASGSTFVVNAMAWYRQAPGKERELVAAIRNSGSTTYADSVKGRFTISRDNAKNTVYLQMNSLKPEDTAVYYCATDISATVTAVQINPYDYWGQGSQVTVSS | low polyreactivity |
| QVQIVESGAGLVQAGGSLRISCAASGRIFRYYAMGWYRQAPGKERELVAAITVSGGSKYYADSVKGRFTISRDNAKNTVYLQMNSLKPEDTAVYYCAKALRSYLFIHFDYWVQGTQVTVSS | low polyreactivity |
